Data on seven molecules can be found in patent US20080044360A1 (COLLAGEN MEDICAL, published 2008).

B1: SEQ ID NO 195 (peptide)
peptide: WWGCRQGTGEHWSHCMWF
modifications: disulfide 4-15 (inferred); not fully specified (N-terminus, C-terminus); also: Gd chelated by DTPA at both ends
B2: Compound ID 1020 (peptide)
peptide: {Glu‑DTPA‑Gd}-WWTCHMTWSGQWDSCKWH-NH2
modifications: disulfide 4-15 (inferred)
B3: Compound ID 1024 (peptide)
peptide: {Glu‑DTPA‑Gd(3)}-PPQWHCTTRFPHHYCLYG-NH2
modifications: disulfide 6-15 (inferred)
notes: N-terminal P-P linker
B4: SEQ ID NO 196 (peptide)
peptide: WWTCHMTWSGQWDSCKWH-NH2
modifications: disulfide 4-15 (inferred); not fully specified (N-terminus); also: Gd chelated by DTPA
B5: Compound ID 1022 (peptide)
peptide: {Glu‑DTPA‑Gd}-GQWHCTTRFPHHYCLYG
modifications: disulfide 5-14 (inferred); not fully specified (C-terminus)
notes: N-terminal G linker
B6: Compound ID 1021 (peptide)
peptide: {Glu‑DTPA‑Gd}-GQWTCSGDEYTWHCNYE
modifications: disulfide 5-14 (inferred); not fully specified (C-terminus)
notes: N-terminal G linker
B7: Compound ID 1023 (peptide)
peptide: {Glu‑DTPA‑Gd″}-GGDWTCVGDHKTWKCNFH-NH2
modifications: disulfide 6-15 (inferred)
notes: N-terminal G-G linker

Bridge positions count the residues as written; N and C are the ends. Primed or numbered codes have the meaning given here. Ends that are not written are not given here. Glu‑DTPA‑Gd = N-terminal Glu-DTPA-Gd chelate (gadolinium DTPA complex on glutamic acid); Glu‑DTPA‑Gd″ = N-terminal chelate: Glu-DTPA-Gd (glutamic acid–DTPA gadolinium chelate); Glu‑DTPA‑Gd(3) = N-terminal gadolinium chelate Glu-DTPA-Gd

T1 sequence (P02452 162-1218 limits assumed, chain 1 of 2): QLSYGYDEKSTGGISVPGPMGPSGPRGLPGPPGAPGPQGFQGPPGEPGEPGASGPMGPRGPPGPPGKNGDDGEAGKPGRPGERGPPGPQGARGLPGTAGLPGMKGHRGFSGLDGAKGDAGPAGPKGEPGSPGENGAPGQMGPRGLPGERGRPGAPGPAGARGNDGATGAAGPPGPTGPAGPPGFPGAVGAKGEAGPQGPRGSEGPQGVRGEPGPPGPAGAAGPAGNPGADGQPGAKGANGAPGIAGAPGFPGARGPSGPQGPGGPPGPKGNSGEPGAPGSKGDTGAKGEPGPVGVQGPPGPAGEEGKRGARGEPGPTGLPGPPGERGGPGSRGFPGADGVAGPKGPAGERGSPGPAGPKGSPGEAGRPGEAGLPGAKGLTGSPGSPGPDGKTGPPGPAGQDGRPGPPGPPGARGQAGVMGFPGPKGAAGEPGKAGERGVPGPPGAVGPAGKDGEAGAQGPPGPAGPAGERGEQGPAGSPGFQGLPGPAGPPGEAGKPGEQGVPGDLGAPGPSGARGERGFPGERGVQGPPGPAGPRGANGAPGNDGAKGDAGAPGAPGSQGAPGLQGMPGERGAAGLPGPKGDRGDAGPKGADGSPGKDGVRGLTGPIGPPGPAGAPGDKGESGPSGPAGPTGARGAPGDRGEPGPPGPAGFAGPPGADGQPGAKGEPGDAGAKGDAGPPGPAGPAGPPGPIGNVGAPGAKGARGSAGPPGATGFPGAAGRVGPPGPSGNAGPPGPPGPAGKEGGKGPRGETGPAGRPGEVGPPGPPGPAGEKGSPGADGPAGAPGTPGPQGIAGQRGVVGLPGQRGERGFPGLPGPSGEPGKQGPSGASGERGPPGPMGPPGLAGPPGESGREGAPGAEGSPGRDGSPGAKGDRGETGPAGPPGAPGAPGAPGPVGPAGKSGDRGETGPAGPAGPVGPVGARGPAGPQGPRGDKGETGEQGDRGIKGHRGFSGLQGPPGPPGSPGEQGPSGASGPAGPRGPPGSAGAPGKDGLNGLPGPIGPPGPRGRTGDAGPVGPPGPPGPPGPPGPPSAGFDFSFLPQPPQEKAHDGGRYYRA
T1 sequence (P08123 80-1119 limits assumed, chain 2 of 2): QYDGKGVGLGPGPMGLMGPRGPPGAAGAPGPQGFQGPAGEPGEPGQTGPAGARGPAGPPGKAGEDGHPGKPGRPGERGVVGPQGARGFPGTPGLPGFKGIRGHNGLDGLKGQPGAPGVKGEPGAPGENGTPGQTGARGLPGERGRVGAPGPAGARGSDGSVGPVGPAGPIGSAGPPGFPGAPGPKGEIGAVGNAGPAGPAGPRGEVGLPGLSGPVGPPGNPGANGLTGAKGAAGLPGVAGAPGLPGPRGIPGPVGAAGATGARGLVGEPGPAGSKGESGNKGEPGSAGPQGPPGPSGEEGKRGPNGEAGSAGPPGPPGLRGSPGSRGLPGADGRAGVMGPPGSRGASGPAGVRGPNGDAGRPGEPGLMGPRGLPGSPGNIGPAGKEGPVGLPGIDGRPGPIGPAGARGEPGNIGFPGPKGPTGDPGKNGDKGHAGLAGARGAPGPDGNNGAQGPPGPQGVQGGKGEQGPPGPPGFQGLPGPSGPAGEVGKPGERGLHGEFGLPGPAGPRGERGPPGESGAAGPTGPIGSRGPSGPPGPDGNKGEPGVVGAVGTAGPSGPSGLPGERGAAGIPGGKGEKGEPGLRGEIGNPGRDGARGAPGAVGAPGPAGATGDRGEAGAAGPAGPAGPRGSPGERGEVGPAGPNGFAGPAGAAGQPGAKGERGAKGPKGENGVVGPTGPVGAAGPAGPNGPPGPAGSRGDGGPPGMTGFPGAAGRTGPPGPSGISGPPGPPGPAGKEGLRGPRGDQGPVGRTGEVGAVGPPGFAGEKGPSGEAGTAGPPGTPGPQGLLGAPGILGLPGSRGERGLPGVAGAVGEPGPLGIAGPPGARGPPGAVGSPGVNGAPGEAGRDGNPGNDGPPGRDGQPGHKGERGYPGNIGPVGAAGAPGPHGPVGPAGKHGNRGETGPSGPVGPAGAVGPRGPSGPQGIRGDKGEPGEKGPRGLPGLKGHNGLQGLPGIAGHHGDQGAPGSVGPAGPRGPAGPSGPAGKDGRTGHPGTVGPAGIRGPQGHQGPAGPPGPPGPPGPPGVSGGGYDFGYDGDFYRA

One experiment addresses T1, human collagen type I, acid soluble, extracted from placenta (Sigma C7774) (human, UniProt P02452 162-1218; P08123 80-1119).
T1 construct: tissue extract, gelled and dried in wells; also called dried human collagen; h-Collagen
The experiment can be described thus: % binding to collagen I.
Turning to B1, the “% bound” value was found to be 16%.
In the case of B2, the “% bound” value worked out at 60%.
With B3, the “% bound” value was found to be 70%.
For B4, the “% bound” value was 60%.
On to B5, for which the “% bound” value came to 36%.
For the molecule B6, the “% bound” value was 48%.
As for B7, the “% bound” value stood at 14%.

Another experiment deals with T2, rat collagen, acid soluble, type I, rat tail (Upstate 08-115) (rat, UniProt P02454 152-1207; P02466 86-1125).
T2 construct: tissue extract, gelled and dried in wells; also called dried rat collagen
T2 sequence (P02454 152-1207, chain 1 of 2): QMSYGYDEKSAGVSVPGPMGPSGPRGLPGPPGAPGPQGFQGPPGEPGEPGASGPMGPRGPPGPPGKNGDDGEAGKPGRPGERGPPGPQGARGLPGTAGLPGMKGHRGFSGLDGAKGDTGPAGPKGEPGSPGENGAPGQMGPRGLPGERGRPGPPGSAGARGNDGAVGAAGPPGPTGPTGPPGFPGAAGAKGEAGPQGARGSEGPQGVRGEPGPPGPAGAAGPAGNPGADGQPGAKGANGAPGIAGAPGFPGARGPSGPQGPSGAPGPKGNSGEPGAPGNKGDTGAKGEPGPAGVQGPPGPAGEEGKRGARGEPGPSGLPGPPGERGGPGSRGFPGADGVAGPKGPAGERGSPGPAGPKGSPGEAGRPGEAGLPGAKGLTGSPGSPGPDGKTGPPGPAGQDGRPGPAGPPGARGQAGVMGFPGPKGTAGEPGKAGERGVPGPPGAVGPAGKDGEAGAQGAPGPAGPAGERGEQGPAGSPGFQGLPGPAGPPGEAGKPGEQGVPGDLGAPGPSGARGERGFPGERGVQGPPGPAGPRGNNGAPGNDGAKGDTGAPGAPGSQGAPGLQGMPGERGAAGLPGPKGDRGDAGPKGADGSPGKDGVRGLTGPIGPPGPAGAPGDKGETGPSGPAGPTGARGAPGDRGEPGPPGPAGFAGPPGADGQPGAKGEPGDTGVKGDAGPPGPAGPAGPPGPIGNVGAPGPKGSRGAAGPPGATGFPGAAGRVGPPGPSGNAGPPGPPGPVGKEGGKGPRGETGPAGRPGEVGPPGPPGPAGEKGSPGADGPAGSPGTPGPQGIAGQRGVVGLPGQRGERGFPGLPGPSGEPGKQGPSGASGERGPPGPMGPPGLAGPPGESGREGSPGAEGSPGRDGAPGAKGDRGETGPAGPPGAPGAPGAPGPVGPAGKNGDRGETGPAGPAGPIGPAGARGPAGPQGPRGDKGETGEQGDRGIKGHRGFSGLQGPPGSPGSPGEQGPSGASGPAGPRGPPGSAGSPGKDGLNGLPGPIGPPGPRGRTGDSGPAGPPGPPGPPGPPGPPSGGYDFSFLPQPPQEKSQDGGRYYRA
T2 sequence (P02466 86-1125, chain 2 of 2): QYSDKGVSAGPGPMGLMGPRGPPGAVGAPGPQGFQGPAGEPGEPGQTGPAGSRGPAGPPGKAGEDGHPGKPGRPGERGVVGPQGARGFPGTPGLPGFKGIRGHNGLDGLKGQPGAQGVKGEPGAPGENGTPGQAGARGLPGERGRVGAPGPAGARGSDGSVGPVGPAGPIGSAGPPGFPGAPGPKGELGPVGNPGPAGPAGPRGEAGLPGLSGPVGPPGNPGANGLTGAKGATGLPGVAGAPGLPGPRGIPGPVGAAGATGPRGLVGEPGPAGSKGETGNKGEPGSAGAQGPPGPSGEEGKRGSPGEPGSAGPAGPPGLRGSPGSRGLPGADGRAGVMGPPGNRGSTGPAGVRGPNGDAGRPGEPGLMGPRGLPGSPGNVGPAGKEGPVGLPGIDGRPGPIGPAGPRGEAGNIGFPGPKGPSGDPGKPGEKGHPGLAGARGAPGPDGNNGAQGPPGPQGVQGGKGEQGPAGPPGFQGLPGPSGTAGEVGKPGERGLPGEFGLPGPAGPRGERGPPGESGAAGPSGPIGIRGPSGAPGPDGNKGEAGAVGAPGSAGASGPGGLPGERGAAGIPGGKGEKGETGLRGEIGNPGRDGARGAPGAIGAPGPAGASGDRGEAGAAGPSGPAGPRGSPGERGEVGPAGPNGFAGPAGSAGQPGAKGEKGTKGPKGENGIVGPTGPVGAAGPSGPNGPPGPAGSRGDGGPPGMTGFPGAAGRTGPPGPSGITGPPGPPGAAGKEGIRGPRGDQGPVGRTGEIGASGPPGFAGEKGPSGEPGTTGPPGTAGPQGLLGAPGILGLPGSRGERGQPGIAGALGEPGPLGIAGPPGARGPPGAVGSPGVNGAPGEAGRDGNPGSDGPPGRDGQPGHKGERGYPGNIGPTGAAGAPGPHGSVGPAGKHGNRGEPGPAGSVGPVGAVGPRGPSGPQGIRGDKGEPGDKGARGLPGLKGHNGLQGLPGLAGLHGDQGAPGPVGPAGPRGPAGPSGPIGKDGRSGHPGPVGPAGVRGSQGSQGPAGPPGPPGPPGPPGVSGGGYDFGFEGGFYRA
The experiment can be described thus: % binding to collagen I.
Turning to B1, the “% bound” value was 9%.
For the molecule B2, the “% bound” value is 34%.
In the case of B3, the “% bound” value was found to be 55%.
Regarding B4, the “% bound” value stood at 34%.
Turning to B5, the “% bound” value worked out at 38%.
Still for that read-out and setting: to B6 belongs 13%; to B7, 12%.
